Laboratory results as given in article PMC8646600 (2021).

B1: S-E6 full-length human IgG4e1(S228P) antibody (antibody, V domains shown)
VH: QVTLRESGPGLVKPSETLSLTCAVSGGSLSSVNYYWSWIRQHPGKGLEWIGYIYYSGSTNYNPSLKSRVTMSLDTSKNQFSLKLSSVTAADTAVYYCATPGAIMGALHIWGQGTLVTVSS
VL: QAVLTQPSSASSTPGQRVIISCSGSSSNIGSNTVSWYQQVPGAAPKLLIYFDYRRPSGVPDRFSGTRSGTSASLGISGLQSEDEADYYCAAWDDSLSAWVFGRGTKLTVL
B2: S-E6 Fab (Fab, V domains shown)
VH: B1 VH
VL: B1 VL
B3: S-B8 Fab (Fab, V domains shown)
VH: QVQLVQSGGGLIQPGGSLRLSCAASGFTVSLSHMNWVRQAPGKGLEWVSITYGDGNSDYADSVKGRFTISRDNSKNTLYLQMNSLRAEDTAVYYCAREYYYGMDVWGQGTTVTVSS
VL: not shown
B4: S-B8 full-length human IgG4e1(S228P) antibody (antibody, V domains shown)
VH: B3 VH
VL: not shown

Experiments:
[1] = molecular target: SARS-CoV-2 spike RBD (S-RBD), hFc tag removed by thrombin digestion, biotinylated (SARS-CoV-2, UniProt P0DTC2 319-541); assay: BLI
[2] = molecular target: SARS-CoV-2 RBD titrated over immobilised Fabs (construct not stated) (SARS-CoV-2, UniProt P0DTC2 319-541); assay: BLI

Binder | koff [1] [s⁻¹] | koff [2] [s⁻¹]
B1 | 0.000865 | 
B2 |  | 0.00196
B3 |  | 0.0027
B4 | 0.00267 | 
